Test [1] addresses T1, extracellular domain (ECD) of human IGSF11 (VSIG3), recombinant (human, UniProt Q5DX21 23-241).
T1 construct: biotinylated where captured on streptavidin; tags of the reagent not always stated; also called IGSF11 (ECD domain); ECD-IGSF11
T1 sequence: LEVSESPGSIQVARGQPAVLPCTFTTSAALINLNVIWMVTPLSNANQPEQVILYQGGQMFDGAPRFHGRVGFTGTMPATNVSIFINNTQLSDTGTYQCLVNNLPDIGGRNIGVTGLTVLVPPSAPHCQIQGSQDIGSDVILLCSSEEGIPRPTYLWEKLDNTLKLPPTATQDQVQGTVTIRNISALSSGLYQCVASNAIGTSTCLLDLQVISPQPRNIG
In words: SPR.

Test [2] deals with T2, full-length ECD of human IGSF11 fused to murine Fc (human, UniProt Q5DX21 23-241).
T2 construct: also called Fc-fusion IGSF11 ECD; not shown: murine Fc
T2 sequence: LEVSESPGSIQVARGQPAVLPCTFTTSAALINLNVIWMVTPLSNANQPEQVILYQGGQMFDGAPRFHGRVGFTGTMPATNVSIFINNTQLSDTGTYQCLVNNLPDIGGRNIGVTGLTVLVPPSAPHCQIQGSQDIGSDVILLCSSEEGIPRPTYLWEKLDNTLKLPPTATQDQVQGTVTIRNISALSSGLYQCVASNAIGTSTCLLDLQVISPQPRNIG
In words: IgG ELISA. For orientation: An ELISA detects its analyte on a solid surface through an enzyme-linked reagent.

In test [3] the target is T3, IgV domain of human IGSF11 fused to murine IgG2a Fc (human, UniProt Q5DX21 23-143).
T3 construct: not shown: murine IgG2a Fc-region
T3 sequence: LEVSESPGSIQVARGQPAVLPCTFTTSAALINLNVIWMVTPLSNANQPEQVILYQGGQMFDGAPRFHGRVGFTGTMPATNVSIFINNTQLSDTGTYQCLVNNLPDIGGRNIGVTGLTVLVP
In words: IgG ELISA.

Test [4] addresses T4, human IGSF11 (VSIG3) expressed on cells (human, UniProt Q5DX21 23-431).
T4 sequence: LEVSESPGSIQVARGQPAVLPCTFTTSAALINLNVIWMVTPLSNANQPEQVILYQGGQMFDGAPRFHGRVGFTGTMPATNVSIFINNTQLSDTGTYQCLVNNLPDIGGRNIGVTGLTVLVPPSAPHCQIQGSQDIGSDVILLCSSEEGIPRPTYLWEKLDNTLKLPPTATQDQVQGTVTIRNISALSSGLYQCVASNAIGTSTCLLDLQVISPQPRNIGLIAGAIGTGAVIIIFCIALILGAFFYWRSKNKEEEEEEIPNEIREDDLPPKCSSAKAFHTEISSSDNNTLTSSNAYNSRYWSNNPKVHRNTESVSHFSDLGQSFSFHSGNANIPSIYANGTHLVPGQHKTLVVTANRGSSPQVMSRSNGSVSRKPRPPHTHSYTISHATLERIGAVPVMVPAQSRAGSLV
In words: IgG1 FACS DMS 273.

The target of test [5] is T5, human IGSF11 (VSIG3) ECD, His-tagged (human, UniProt Q5DX21 23-241).
T5 construct: in part bought (SinoBiological 13094-H08H); also called HIS-IGSF11; IGSF11-HIS; not shown: His tag
T5 sequence: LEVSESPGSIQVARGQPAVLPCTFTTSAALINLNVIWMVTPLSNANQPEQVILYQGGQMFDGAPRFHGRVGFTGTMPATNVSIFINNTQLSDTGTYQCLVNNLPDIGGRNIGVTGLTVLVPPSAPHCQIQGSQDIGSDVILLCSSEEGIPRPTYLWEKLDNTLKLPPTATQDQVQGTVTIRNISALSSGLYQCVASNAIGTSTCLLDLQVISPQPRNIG
In words: IgG1 ELISA EC50 0.02-0.05 nM.

Test [6] addresses T2, full-length ECD of human IGSF11 fused …. In words: ELISA: Fc-fusion IGSF11 ECD coated, IgG dilution series, anti-human IgG-HRP.
Experimental: (§1) Binding of IgG antibodies to each of the full-length ECD of IGSF11, to the IgV domain of IGSF11 and to the IgC2 domain of IGSF11, was tested in the ELISA assay as follows: briefly, recombinant domains of Fc-fusion IGSF11 proteins were coated at 2 ug/mL on a 384-well Maxisorp plate. The surface was blocked with 2% (w/v) skim milk powder in PBST. […] After removing all unbound antibodies by 3 wash cycles with PBST, bound IgG ABPs were detected with a goat anti-human IgG antibody conjugated with horseradish peroxidase. After three wash cycles with PBST the ELISA was developed with TMB substrate.
In test [7] the target is T6, IgC2 domain of human IGSF11 fused to murine IgG2a Fc (human, UniProt Q5DX21 137-241).
T6 construct: not shown: murine IgG2a Fc-region
T6 sequence: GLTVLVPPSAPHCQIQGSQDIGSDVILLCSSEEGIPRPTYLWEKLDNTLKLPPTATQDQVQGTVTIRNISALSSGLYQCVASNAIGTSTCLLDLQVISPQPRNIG
In words: BLI: IgC2 domain-mFc captured on the sensor, IgG1 in solution, concentrations not given [Cont.) D]. (In general: BLI is a label-free optical method that tracks binding on a fibre tip over time.)

For test [8], the target named is T1, extracellular domain (ECD) of human …. In words: BLI.
For test [9], the target named is T6, IgC2 domain of human IGSF11 fused to …. In words: IgG ELISA.
Experimental: as §1
Test [10] addresses T4, human IGSF11 (VSIG3) expressed on cells. In words: IgG1 FACS HEK-OE.
Test [11] addresses T5, human IGSF11 (VSIG3) ECD, His-tagged. In words: IgG1 ELISA EC50 <0.02 nM.
The target of test [12] is T1, extracellular domain (ECD) of human …. In words: BLI apparent affinity, IgG on AHC sensor, IGSF11 ECD 100 nM.
Text: Briefly, various APBs were loaded on an optical biosensor via a commercially available Capture System (AHC sensors, ForteBio).
Test [13] deals with T4, human IGSF11 (VSIG3) expressed on cells. In words: FACS, DMS 273 cells with scrambled control siRNA (SC).
Test [14] has the same target. In words: FACS, M579-A2-luc cells with scrambled control siRNA (SC). For orientation: In flow cytometry, cells or beads pass a laser one at a time.
For test [15] the target is unchanged. In words: FACS, DMS 273 cells with IGSF11 siRNA (KD, knock-down control).
Test [16] shares this target. In words: FACS, M579-A2-luc cells with IGSF11 siRNA (KD, knock-down control).
The target in test [17] is T2, full-length ECD of human IGSF11 fused …. In words: ELISA: Fc-fusion IGSF11 ECD coated, IgG dilution series, anti-human IgG-HRP. The source holds these as a separate data set.
Experimental: as §1
Test [18] has as its target T5, human IGSF11 (VSIG3) ECD, His-tagged. In words: ELISA: IGSF11-HIS coated, IgG1 dilution series, anti-human antibody-HRP, TMB.
Test [19] addresses T6, IgC2 domain of human IGSF11 fused to …. In words: ELISA: IgC2 domain-mFc fusion coated, IgG dilution series, anti-human IgG-HRP.
Experimental: as §1
Test [20] has as its target T3, IgV domain of human IGSF11 fused to …. In words: BLI: IgV domain-mFc captured on the sensor, IgG1 in solution, concentrations not given [Cont.) D].
In test [21] the target is T5, human IGSF11 (VSIG3) ECD, His-tagged. In words: blocking ELISA: VSIR-Fc immobilised, IgG dilution series pre-incubated with 200 nM IGSF11 ECD-His, bound IGSF11 detected with anti-His-HRP.
Experimental: All binding steps were for 1 hour at room temperature, and all washing steps were three times washing with PBS/Tween (0.05%).
Test [22] concerns the target T4, human IGSF11 (VSIG3) expressed on cells. In words: IgG FACS Colo741.
Text: (§2) Unbound antibodies were removed by washing the cells three time with FACS buffer. Bound antibodies were detected with a mouse anti-human IgG antibody conjugated with AlexaFluor647.
Test [23] has as its target T7, murine IGSF11 expressed on cells (mouse, UniProt P0C673 23-428).
T7 construct: MC38-IGSF11, CT26-IGSF11, MC38-wt (naturally expresses murine IGSF11)
T7 sequence: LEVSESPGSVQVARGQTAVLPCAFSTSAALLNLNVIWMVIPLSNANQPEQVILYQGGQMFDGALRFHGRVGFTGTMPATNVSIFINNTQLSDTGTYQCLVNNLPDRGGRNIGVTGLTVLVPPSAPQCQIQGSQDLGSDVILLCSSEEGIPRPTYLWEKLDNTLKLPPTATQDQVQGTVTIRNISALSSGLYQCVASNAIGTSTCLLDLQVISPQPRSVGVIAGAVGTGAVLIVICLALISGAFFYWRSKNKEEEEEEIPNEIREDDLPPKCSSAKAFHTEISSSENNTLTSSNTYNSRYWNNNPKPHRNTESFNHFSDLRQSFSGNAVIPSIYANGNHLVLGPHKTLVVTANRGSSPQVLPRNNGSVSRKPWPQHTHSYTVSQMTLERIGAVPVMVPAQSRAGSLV
In words: IgG FACS MC38-wt; MC38-wt cells (murine line, not transfected).
Text: as §2

The target of test [24] is T1, extracellular domain (ECD) of human …. In words: BLI: biotinylated IGSF11 on streptavidin sensor, ABP bound for 600 s, then VISTA.COMP; VISTA response normalised to that without antibody.
Text: Briefly, biotinylated IGSF11 was loaded on an optical biosensor via a streptavidin surface. The IGSF11-loaded biosensor was dipped into the samples with different concentrations of anti-IGSF11 ABP, and ABPs were bound for 600s.
For test [25], the target named is T2, full-length ECD of human IGSF11 fused …. In words: IgG ELISA. This is another data set of the same source.
Experimental: as §1
Test [26] has as its target T6, IgC2 domain of human IGSF11 fused to …. In words: IgG ELISA. The source holds these as a separate data set.
Experimental: as §1
For test [27], the target named is T7, murine IGSF11 expressed on cells. In words: IgG FACS CT26-IGSF11.
Text: as §2
The target is the same in test [28]. In words: IgG FACS MC38-IGSF11.
Text: as §2
In test [29] the target is T4, human IGSF11 (VSIG3) expressed on cells. In words: IgG FACS MDA-MB-231-IGSF11.
Text: as §2
Test [30] has as its target T7, murine IGSF11 expressed on cells. In words: IgG FACS, murine IGSF11 cell lines of Table 13.4; murine IGSF11 cell lines (MC38-IGSF11, MC38-wt).
The target in test [31] is T4, human IGSF11 (VSIG3) expressed on cells. In words: IgG FACS, human IGSF11 cell lines of Table 13.4; human IGSF11 cell lines (Colo741, MDA-MB-231-IGSF11).

Read-outs that look alike come from different tables or passages of the source.

B1: A-024 (IgG1 format) (antibody, V domains shown)
VH: QMQLVQSGAEVKKPGSSVKVSCKASGGTFSSYAISWVRQAPGQGLEWMGWISAYNGNTNYAQKLQGRVTMTTDTSTSTAYMELRSLRSDDTAVYYCASLGSYGYTGAFDIWGQGTMATVSS
VL: QSALTQPASVSGSPGQSITISCTGTSSDVGGYNYVSWYQQHPGKAPKLMIYEVSNRPSGVSNRFSGSKSGNTASLTISGLQAEDEADYYCSSYTSSSTLVVFGGGTKLTVL
notes: also called A-024-like ABP
Consider B1, for which, in test [1], the Kd is over 500 nM. Besides, the EC50 in test [2] was under 1 nM; in test [3], under 1 nM; in test [4] it was under 10 nM; in [5], 0.02 to 0.05 nM. Also, the 50% effective concentration (EC50 (read off the curve)) in test [6] is about 0.4 nM. Further, the binding result in test [7] is recorded as “no binding”.

B2: A-006 (IgG1 format) (antibody, V domains shown)
VH: EVQLVESGGGLIQPGGSLRLSCAASGFTVSSNYMSWVRQAPGKGLEWVSVIYSGGSTYYADSVKGRFTISRDNSKNTLYLQMNSLRAEDTAVYYCARGNPYYYGDLQVNFDYWGQGTLVTVSS
VL: QAVVTQEPSLTVSPGGTVTLTCASSTGAVTSGYYPNWFQQKPGQAPRPLIYSTSNKHSWTPARFSGSLLGGKAALTLSGVQPDDEAEYYCLLYYGGDWVFGGGTKLTVL
notes: human IgG1 format; also called A-006-like ABP
For the molecule B2, the Kd in [8] was 1 to 10 nM; in test [1], 250 to 500 nM; in test [12], under 15 nM. In addition, the half-maximal effective concentration (EC50) in test [2] is under 1 nM; in test [9], under 1 nM; in [10] it was 10 to 50 nM; in [4], over 50 nM; in test [11], under 0.02 nM. Further, the “% binding (FACS heat-map)” value in test [13] amounted to 81.1%; in test [14], 75.3%; in [15], 5.72%; in test [16], 2.59%. Besides, the concentration giving a half-maximal response (EC50 (read off the curve)) in [17] is about 0.5 nM; in test [18] it was about 0.01 nM; in test [19] it was about 0.4 nM. In addition, the binding result in test [20] is recorded as “no binding”. In addition, the “IC50 (read off the curve)” value in test [21] is about 4 nM.

B3: D-114 (IgG format) (antibody, V domains shown)
VH: EVQLLESGGGLVQPGGSLRLSCAASGFTFQFSALSWVRQAPGKGLEWVSAISYGGGSKYYADSVKGRFTISRDNSKNTLYLQMNSLRAEDTAVYYCARDSRDAYGVAFDLWGQGTMVTVSS
VL: ASVLTQPPSVSAAPGQKVTISCSGSSSNIGNNYVSWYQQLPGTAPKLLIYDNNKRPSGIPDRFSGSKSGTSATLGITGLQAEDEADYYCLSYKLSPGAYVFGGGTKLTVL
With B3, the half-maximal effective concentration (EC50) in test [22] and in test [23] was under 0.5 nM each time. For the same molecule, in [24], the “IC50 (read off the curve)” value is about 0.7 nM.

B4: C-005 (IgG1 format) (antibody, V domains shown)
VH: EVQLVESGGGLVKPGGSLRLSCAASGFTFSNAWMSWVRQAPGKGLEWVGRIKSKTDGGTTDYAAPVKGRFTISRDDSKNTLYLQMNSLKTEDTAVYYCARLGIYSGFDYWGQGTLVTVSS
VL: SYELTQPPSVSVSPGQTASITCSGDKLGDKYASWYQQKPGQSPVLVIYQDSKRPSGIPERFSGSNSGNTATLTISGTQAEDEADYYCHSYTGKPSQVVFGGGTKLTVL
Regarding B4, the 50% effective concentration (EC50) in [25] is under 1 nM; in test [26], under 1 nM; in [27], under 20 nM; in [28] it was under 20 nM; in [29] it was under 10 nM; in test [30], about 2 nM. This molecule also gave an EC50 in test [31] of about 2 nM. In addition, the Kd in test [12] is under 15 nM.

Broadly, the EC50 is the concentration giving half of the maximal effect. Higher therefore signals a need for much substance. The term EC50 (read off the curve) denotes the concentration needed to bring the measured effect to its halfway point. Low values mean an effect from little substance, high ones a need for much substance.
